Target: the molecule itself
Test: SEC-MALS; gel filtration coupled with multi-angle light scattering

B1: REXO2, N-terminal-truncated (Δ28aa), wild type (enzyme, human, UniProt Q9Y3B8 29-237, looked up)
chain: GGAAMAAGESMAQRMVWVDLEMTGLDIEKDQIIEMACLITDSDLNILAEGPNLIIKQPDELLDSMSDWCKEHHGKSGLTKAVKESTITLQQAEYEFLSFVRQQTPPGLCPLAGNSVHEDKKFLDKYMPQFMKHLHYRIIDVSTVKELCRRWYPEEYEFAPKKAASHRALDDISESIKELQFYRNNIFKKKIDEKKRKIIENGENEKTVS
notes: human REXO2 (oligoribonuclease, mitochondrial), lacking the N-terminal 28 residues (Δ28aa); Crystallised with an RNA oligonucleotide and Ca2+; also called WT; wild-type REXO2; not shown: 6x His-SUMO, N-terminal, cleaved
- stoichiometry N: 2

— publication PMC7261184, “Human REXO2 controls short mitochondrial RNAs generated by mtRNA processing and decay machinery to prevent accumulation of double-stranded RNA” (Nucleic Acids Research, 2020)
